From the NTF2 design screens of Basanta et al. (2020)

Test: protease stability score; higher = more stable; yeast display proteolysis, trypsin and chymotrypsin;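 further: relative to predicted unfolded state with 0 unfolded-like and 1 meaning tenfold more protease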

| Sequence | protease stability score |
| --- | --- |
| SEDQEVAEKDLEIYSRAITTGNEHELKHLLDPNYKLIVNGQEYHGWETLRHYWKHLRVESVEFEIRSFDSQGDKLHIDGIIILHGEVDGRHTELFEDVHIRAHKINGRWHNKEVNIR | 0.897 |
| SEDSERAREVWEDLFKAILTGDEDLLRELVDPNVRLEIGDKELVGWEHMIYHLRDHLRRYKNMRLELRIRHVEHQGDKLHLNVLLILIQGDKRIEFEVEVLIEKVNGRWILKEIRIK | 1.38 |
| HEHEKWMEELVRRLKHHLRTGDFETWKELADPNAKVQLVVGDKHVESIGREEMEKWFHDHMMRLGIERFEFNIQSIYVQGEKIHLLGRLHFNGQDERAEIILVVVNGRIKQIHFHLH | 1.2 |
| DEKDKITQDLVKNIIDLFRTGNEDDLRRLADPHVQTHVNGRTIIGMEDASRKIKEILEELGIDHVHWHHVQAQGEKVEIHMEHRVGDKNWELIIRMDLVNGRIKRQEVELR | 0.927 |
| DDEERHASTIFELLMEVILTGDEDTFEELADPNTRFDINGREFHGREYMSHLKTQYDHWYLKHMHITSSEVQGNFAILNSETDYELEYGDKRVSFYERWHLFVLKVDGRWIIHSFRIN | 0.985 |
| SEEEEKFHRFYKLLLEMILTGNWKEVWDLMDPNARLDVIIGDKSIHNHGWKVILEFMREIRIRHVHIKHMEVYNGRIHLDEHRDIHFNGRDIRSDVIIHAVVIDGRFHHERIEFL | 0.751 |
| DEEKDIMNEWWKRIFNVFHTGDEREHDKMLDPNARFDIGDKTLHGMDDFRRFLHRADHISHFTEHHVEVQGEKLVWEGTYDGEFNGVERRFHTHEQNIIINGKVKRVFFQIR | 0.834 |
| EEEKKNRAHQFLKAVERGDPEELRKQFDPNAHARVGDKRYHGMEEWAKDVMRRVRELRMSIKRLSVDVQGNDVKVNMNLVINRNGKPKEFREVWYFKIHNGHFVELHVQEEP | 1.24 |
| DEETKRAEELMELWLHLLRTGDEELLSELMDPHVRLDINGVELHGREALLQWHHEHRRRIDHREIRVESRRIQGEKVEQHEDIIIHVNGVEFRHREFYEVVIIDGRFKELHIEHE | 0.546 |
| SEDEEISERALRHVYKHLKTGDEDNFQKNFDPHVRFEAENVEFHGREASEHLSKRIDVIHRIIIRHHTIYNGVIVIHGEVDGEFNGKRDRDIVTIYYVKVNGQWQIRELKIG | 0.891 |
| DEERKSTELALKHWHESMRTGDEHDTRRMMDPNVRVEIGDKTYVGREDVLEFMHRLGANHVEHFEIEDWKIVNGKVVMHGHSRVRIGDFEANTEVIIFSQKFNGRWFLESVIIV | 0.656 |
| DEEDKMVRVLVELWVENFITGDEEKLYELMDPDTRLEIDGVENHGMEKAIEFLERHREHYGVDHIHLIIHEVKHQGNKAHIDGILEFRQGDKQIELHWELHFEVVNGRMKEVHVNTR | 2.29 |
| DELTEILKHAVERLLRHIVTGDEDSVSELADPNVKVDFNGQEYHGMHFFSHLASRFKGLRLELTELHSVGNYMDTRMHVEVNGKNIELILHSKKVNGKWSLERSEFH | 1.26 |
| SDTEHDARRVIEELSKALLTGDWRRIEELLDPNTRWVFNGQEFHGMEIVIKVLIHLRRHMTHVEFHDIHTIDGRVHSDTEFDVSLIINGKTERTRVHVEFIIRKVNGRWRIEEVRFE | 2.25 |
| SEDEKLMEHAFRQLLRDLETGDWHSFHHLADPTVKLDIDGREIHGRESATRVLEELWRKFGVTRVESELHSMHSQGDKLRVESKMNFNGVEYSVIIIMIKIDGRWLLHSENHK | 1.56 |
| DHEVAKTMMEEWQKALENGDDKKLKELYDPDGEWEADDEQDQGTEVIEKLMEKVKKQGLKFQVRKAKVEGDKFTVVYDLHVGNKTATFEVEVHVEGGRIKKVKAKADEEAKKLITEG | 2.05 |
| SEEEENILIAYRLIMHSVNTGDESSLLELIDPDYRLDVNGVDIHGREEWYRDQKERFRDAGFKHTEFRFRDLRVQGDKVFLDVEITWHVDGKTIRHRVTMIVLKVNGRWLVESFKVK | 1.48 |
| DEERENAERMLKAWVEILETGDEHRISRLLDPNVQFQIGDKHLHGREDVLRHLSEMIKKVKNLTISIHSINIQGDKVHVDGHIHVNGVDHKNDLILLKVNGRWFVTSLKIE | 1.78 |

| Sequence | protease stability score |
| --- | --- |
| DEDEREAERSIREELEYTRTGDEDFIKRLADPHVKLNIDGQRHHGRETVVKIMVEARIKDLHIERLTVIDGRVHMRGRMEGNFNGRDTEVEVHIKLKKVNGQWHVRDFEIR | 1.14 |
| DEEDRKSERVLKEFLHDVLTGDEHTLNRLADPHVRLEVGDKEDHGREKLAKYMVRADHIEHVELRHHHFQGDKIHLHVKIRENVNGREVIFESIEIWLKIDGRWILDSLIVK | 0.091 |
| DQLDKSMKESMTRALEHWETGNERSLENLLDPNTKVVVNGVIVHGWERMSELIHDFWRRLGIDHVEIEDIHNHIQGDKAVLNNKTVINVNGQEIKTTLIIYITKVNGRWTIHSIEIHIH | 1.72 |
| DEDVKTLEHLLRLINDINRTGDEERWMHEADPNTLVIYDGVESHGRESVMKLYHKHWEQLRIEEIHIHHIKMQGNKATIHGRLRGEIDGREKSFTIHVHIILINGQIQSITFRIE | 1.02 |
| DEKDKMSEVTLKLYIHWFLTGDWKSLFDLVDPHMQVRVGDKKFHGREQAVEEIERLLKRIDHITHIQERSFEIIGNKVHLDGELNVIIDGKRIVKDQIIIAVKIDGKWLLQIDEFE | 1.92 |
| SEEKRIDQHFTEQLDRLIETGDEEQLNKLADPHARLIFNGRTEHGREESHKLRHELLERWGHDRVHVELKDMEVQGDKLIVHTVIQINGVKFHVEIIVRKINGRWKMTEVRII | 0.314 |
| SESEEFLEKAYRLIEESLRTGDFREMLSNIDPNARFRYGNFDFHGRENLEFMLKELSKRIDHFHNSHIRRVNVINGRMHLHTSMHVEYDGKKEEVETEWVLLKVDGQWLIKEVTVI | 2.51 |
| SEKETLDQHIARLWVHYWLTGDEDQLHRLADPNVRSIVDGKHVHGMERMLTELKRMRERFDHMHIEIHDIKVFDGVIHIDTTLHVQINGVHRSWESRIIIYLINGRVHSVEIRIL | 1.16 |
| SEMEHQSRKILEDTLRQWLTGDWHSLHELMDPNTKLDVGDKHFHGREAVKVFLERADHVKDLQIDHMRIQGDKIETDVHMHVTVGDKEKDVEVELIVLKVNGKWLLRSASIK | 1.22 |
| SESKHDLIRIFEERSEAHETGDEDFIMELIDPHVKIIIGDKTFHGREKYLEWEKLFGVKHVHFHVKDVRFQGDKVHVNGILRIRVGDKHEEFQVHILITKVNGVWIIKEIEIN | 1.35 |
| DEKEEEYHRILREWMHWLLTGDWDKLLNNVDPHAKLTVNGREIHGMHLAVKLLVDTMRELRFHIEVKDTKVFNGVAFVDLRLHIHIGDKEHKNRSEVTLVIIDGRIHTIVIHDR | 1.56 |
| NEHEEYARRQLELWLHATRTGDEETVRRLADPDVRVIVDGREHHGMEQLLRWMIELRITDFKEDTYEIQGNKIKIRGILYIEIGDKHETRFTTIELNWFNGVLKHIKVEVR | 1.28 |
| TEEERIMLEAIDLLIELWRTGDWKLLDEMVDPRVRIEIGEFTHHGREEYLRILLEEVRRADHRRYHIDHLEIINGRVILNGFIDLTFNGVHLRIREHLVAEKVNGRWLLREIRQR | 1.72 |
| SELEHLMEEAWRLLLEAIRTGDEKLTNKLLDPNVRIEVGEFHYHGRELMLTWFKYELKHLRFKDSRIDHFDVVDGVAKMRTTDTNLVNGRDVTLDVIYVILKVNGRWVFHSMEIR | 0.861 |
| DEEEKWMRNLTEWLLKSLTTGDFESFNRMFDPRTRMHVDGREFHGREEVERYLREFDDKLGADHRESDLEHIEVQGNKARFHTTLKFDIGDKHLRIDTHLVIVKINGQWRIRHVEVR | 0.839 |
| DTEEKLARDIVRIVSELIFTGNEQDLKRLHDPRVRLEVLFENHYLEFHGWEDYLEWLEEWRNHMRMKEIHVHTLQVYGNKARDEVHTVVHIGDKRIETRMHFIVVVINGRIKYISVHIE | 1.9 |
| DEDKEFMERLARMFWHSILTGDEHRISNLADPNMKLEVDGQRFHGREEMERASKERWERLGVDHIHIEDLRVVGDKVTIHTHVDINGKEWRVDIEVKIINGKIKEIRIERHEL | 1.09 |
| DEDEKLMEETLKVLIRAFDTGNWEDLKRMVDPHVRIYFNGRIFHGREFFMEYVIHLRHHARIHLELKDIEVQGDKAHADSRVLVIQGDKSWEFDLEINMTKYDGRWHIKTIKIR | 2.68 |
